From patent publication US20230227537A1
“And” between values parts separate entries of the source, which are not always exact repeats. Equal values may be shown once.

How the values were obtained:
[1] = biological target: Mouse IgG1 Fc fused SARS-CoV-2 RBD (Sino Biological) (SARS-CoV-2; mouse) (UniProt P0DTC2)
[2] = biological target: recombinant prefusion stabilized SARS-CoV-2-2P spike protein (SARS-CoV-2) (UniProt P0DTC2)

Row | Substance | % Signal decrease over 8 min dissociation [1] | Kd [1] | koff [1] | kon [1] | EC50 [2]
1 | VHH72_D61Q - (GGGGS)x2-hIgG1.Hinge-hIgG1.Fc (Fc fusion) | 8% and 10% | 0.0661 nM and 0.0642 nM | 0.000183 s⁻¹ and 0.000205 s⁻¹ | 2.76e+06 M⁻¹ s⁻¹ and 3.19e+06 M⁻¹ s⁻¹ | –
2 | D72-02: VHH72-GS-hIgG1hinge-hIgG1Fc (Fc fusion) | – | – | – | – | 0.0223 µg/mL
3 | VHH72-T60W-hIgG1 Fc (P. pastoris supernatant) (Fc fusion) | 13% and 15% | 75.7 nM and 53.1 nM | – | 41500 M⁻¹ s⁻¹ and 49700 M⁻¹ s⁻¹ | –
4 | VHH72_V100L - (GGGGS)x2-hIgG1.Hinge-hIgG1.Fc (Fc fusion) | 23% and 25% | 0.076 nM and 0.0771 nM | 0.000557 s⁻¹ and 0.000637 s⁻¹ | 7.34e+06 M⁻¹ s⁻¹ and 8.26e+06 M⁻¹ s⁻¹ | –
